# According to the RNAGym collection of RNA variant scans (doi:10.1073/pnas.2313332121):
# B1: TPR t1 (parent)
# chain: GACCAAUCUGCCCUCAGAGCUCGAGAACAUCUUCGGAUGCAGAGGAGGCAGGCUUCGGUGGCGCGAUAGCGCCAACGUCCUCAACCUCCAAUGCAUCCCACCACAUGAUGAUGCCUGAAGAGCCUUGGUUUUUUG
# Variants of: B1
# Assay: polymerase ribozyme fitness, log enrichment relative to wild type (log ratio); higher = more active; in vitro selection for triplet polymerase activity
# In short: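 Mutant libraries of both subunits of a heterodimeric triplet polymerase ribozyme were PCR-built, transcribed, and selected once in triplicate, with frozen incubation at −7 °C and capture of gel-excised extended constructs on streptavidin beads before RT-PCR. Illumina sequencing of input and output libraries was filtered to genotypes with ≥10 input reads and ≥1 read per output. Fitness is the logarithm of genotype enrichment over wild-type enrichment, using inverse-variance-weighted replicate averages. The logarithm is base 2.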
row,Variant,polymerase ribozyme fitness (log ratio)
1,GACCAAUCUGCCCUCAGAGCUGGAGAACUUCUUCGGAUGCAGAGGAGGCAGGCUUCGGUGGCGCGAUACCGCCAACGUCCUCAACCUCAAAUGCAUCCCACCACAUGAUUAUGCCUGAAGAGCCUUGGUUUUUUG,-5.19
2,GACCAAUCUGCCCUCAGAGCUGGAGAACAUCUUCUGAUGCAGAGGAGGCAGGCUUCGGUGGCGCGAUAGCGCCAACGUCCUCAACCUCCAAUGCAUCCCACCACAUGAUGAUGCCUGAAGCGCCUUGGUUUCUUG,-4.9
3,GACCAAUCUGCCCUCAGAGCUAGAGAACAUCUUCGGAUGCAGAGGAGGCAGGCUUCGGUGGCGCGAUAGCGCCAACGUCCUCAACCUCCAAUGCAUCCCACCACAUGAUGAUGCCUGAAUAGCCUUGGUUAUUUG,-4.18
4,GACCAAUCUGCCCUCAGAGCUGGAGAACCUCUUCGGAUGCAGAGGAGGCAGGCUUCGGUGGCGCGAUAGCGCCAACGUCCUCAACCUCCAAUGCAUCCCACCACAUGAUUAUGCCUGAAGAGCCUUGGUUUUUUG,-4.24
5,GACCAAUCUGCCCUCAGAGCUGGAGGACAUCUUCGGAUGCAGAGGAGGCAGGCUUGGGUGGCGCGAUAGCGCCAGCGUCCUCAACCUCCAAUGCAUCCCACCACAUGAUGAUGCCUGAAGAGCCUUGGUUUUUUG,-5.33
6,GACCAAUCUGCCCUCAGAGCUGGAGAACAUCUUCGGAUGCAGAGGAGGCAGGCUUCGGUGGCGCGAUAGCGGCAACGUCCUCAACCUCCAAUGCAUCCCACCACAUGAUGAUGCCUGAAGAGCAUUGGUUUUUUG,-2.22
7,GACCAAUCUGCCCUCAGAGCUAGAGAACAUCUUCGGAUGCAGAGGAGGCAGGCUUCGGUGGCGCGAUAGCGCCAACGUCCUCAACCUCCAAUGCAUCCCACCACAUGAUGAAGGCUGAAGAGCCUUGGUUUUUUG,-1.84
8,GACCAAUCUGCCCUCAGAGCUGGAGAACAUCUUCGGAUGCAGAGGAGGGAGGCUUCGGUGGCGCGAUAGCGCCAACGUCCUCAACCUCCAAUGCAUCCCACCACAUGAUGAUGCCUGAAGAGCCUUGGUUUUUUG,-3.79
9,GACCAAUCUGCCCUCAGAGCUGGAGAACAUCUUCGGAUGCAGAGGAGGCAGGCUUGGGUGGCGCGAUAGCGCCAACGUCCUCAACUUCCAAUGCAUCCCACCACAUGAUGAUGCCUGAAGAGCUUUGGUUUUUUG,-3.03
10,GACCAAUCUGCCCUCAGAGCUGGAGAUCAUCUUCGGAUGCAGAGGAGGCAGGCUUCGGUGGCGCGAUAGCGCCAACGUCCUCAACCUUCAAUGCAUCCCACCACAUGAUGAUGCCUGAAGUGCCUUGGUUUUUUG,-2.51
11,GACCAAUCUGCCCUCAGAGCUAGAGAACAUCUUCGGAUGCAGAGGAGGCAGGCUUCGGUGUCGCGAUAGCGCCAACGUCCUCAACCUCCAAUGCAUCCCACCACAUGAUGAUGCCUGAAGAGCCUUGGUUUUUUG,-5.05
12,GACCAAUCUGCCCUCAGAGCUGGAGAACAUCUUCGGAUGCAGAGGAGGCAGGCUUCGGUGGCGCGAUAGCGCCAACGUCCUAAACCUCCAAUGGAUCCCACCACAUGAUGUUGCCUGAAGAGCCUUGGUUUUUUG,-4.76
13,GACCAAUCUGCCCUCAGAGCUAGAGAACAUCUUCGGAUGCAGAGGAGGCAGGCUUCGGUGGCUCGAUAGCGCCAACGUCCUCAACCUCCAAUGCAUCCCAUCACAUGAUGAUGCCUGAAGAGCCUUGGUUUUUUG,-6.16
14,GACCAAUCUGCCCUCAGAGCUGGAGAACAUCUUCGGAUGCAGAGGAGGCAGGCUUCCGUGGCGCGAUAGCGCCAACGUCCUCAACCUCAAAUGCGUCCCACCACAUGAUGUUGCCUGAAGUGCCUUGGUUUUUUG,-4.42
15,GACCAAUCUGCCCUCAGAGCUGGAGAACAUCUUCGGAUGCAGAGGAGGCAGGCUUCGGUGGCGCGAUAGCGCCAACGUCCUCAACCUCCUAUGCAUCCCACCACAAGAUGUUGCCUGAAGAGCCUUGGUUUUUUG,-3.25
16,GACCAAUCUGCCCUCAGAGCUGGAGAACAUCUUCGGAUGCAGAGGAGGCAGGCUUCGGUGGCGCGAUAGCGCCAACGUCUUCAACCUCCAAUGCAUCCCACCACAUGAUGAUGCCUGAAGAGCCUUGGUUUUUUG,-4.33
17,GACCAAUCUGCCCUCAGAGCUGGAGAACAUCUUCGCAUGCAGAGGAGGCAGGCUUCGGUGGCGCGAUAGCGCCAACGUCCUCAACCUCCAAUGCAUCCCACCACAUGAUGAUGCCUGAAGAGCCUUGGUUUUUUG,-3.09
18,GACCAAUCUGCCCUCAGAGCUGGAGAACAUCUUCGGAUGCAGAGGACGCAGGCUUCGGCGGCGCGAUAGCGCCAACGUCCUCAACCUCCAAGGCAUACCACCACAUGAUGGUGCCUGAAGAGCCUUGGUUUUUUG,-6.83
19,GACCAAUCUGCCCUCAGAGCUGGAGAACAUCUUCGGAUGCAGAGGAUGCAGGCUUCGGUGGCGCGAUAGCGCCAACGUCCUCAACCUCCAAUGCAUCCCACCACAUGAUGCUGCCUGAAGAGCCUUGGUUUUUUG,-5.82
20,GACCAAUCUGCCCUCAGAGCUAGAGAACAUCUUCGGAUGCAGAGGAGGCAGGCUUCGGUGGCGCGAUAGCGCCAACGUCCUCAACCUCCAAUGCAGCCCACCACAUGAUGAUGCCUGAAGAGCCUUGGUUUUUUG,-4.9
21,GACCAAUCUGCCCUCAGAGCUGGAGAACAUCUUCGGAUGCAGAGAAGGCAGGCUUCGGUGGCGCGAUAGCGCCAACGUCCUCAACCUCCAAUGCAUCCCACCACAUGAUGAUGCCUGAAGAGCCUUGGUUUUUUG,-3.31

row,Variant,polymerase ribozyme fitness (log ratio)
1,GACCAAUCUGCCCUCAGAGCUGGAGAACAUCUUCGGCUGCAGAGGAGGCAGGCUUCGGUGGCGCGAUAGCGCCAACGUCCUCAACCUCCAACGCAUCCCACCACAUGAUGAUGCCUGAACAGCCUUGGUUUUUUG,-4.95
2,GACCAAUCUGCCCUCAGAGCUGGAGAACAUCUUCGGAUGCAGAGGAGGCAGGCUUCGGUGGCGCGAUAGCGCCAACGUCCUCAACCUCCAAUGCAUACCACCACAUGAUGAUGCCUGAAGAGCCUUGGUUUUUUG,-5.26
3,GACCAAUCUGCCCUCAGAGCUGGAGAACAUCUUCGGAUGCAGAGGAGGCAGGCUUCGGUGGCGCGAUAGCGCCAACGUCCUCCACCUCCAAUGCAUCCCACCACAUGAUGAUGCCUGAAGAGCCUUGGUUUUUUG,-3.33
4,GACCAAUCUGCCCUCAGAGCUGGAGAACAUCUUUGGAUGCAGAGGAGGCAGGCUUCGGUUGCGCGAUAGCGCCAACGUCCUCAACCUCCAAUGAAUUGCACCACAUGAUGAUUCCUGAAGAGCCUUGGUUUUUUG,-6.85
5,GACCAAUCUGCCCUCAGAGCUGGAGAACAUCUUCCGAUGCAGAGGAGGCAGGCUUCGGUGGCGUGAUAGCGCCAACGUCCUCAACCUCCAAUGCAUCCCACCACAUGAUGAUGCCUGAAGAGCCUUGGUUUUUUG,-6.13
6,GACCAAUCUGCCCUCAGAGCUGGAGAAUAUCUUCGGUUGCAGAGGAGACAGGCUUCGGUGGCGCGAUAGCACCAACGUCCUCAACCUCCAAUGCAUCCCACCACAUGAUCAUGCCUGAAGAGCCUUGGUUUUUUG,-5.6
7,GACCAAUCUGCCCUCAGAGCUAGAGAACAUCUUCGGAUGCAGAGGAGGCAGGCUUCGGUGGCGCGAUAGCGCCAACGUCCUCAACCUCCAAUGCAUCCCACCACAUGAUGAUGCCUGAAUAGCCUUGGUUUUUUG,-4.24
8,GACCAAUCUGCCCUCAGAGCUGGAGAACAUCUUCGGAUGCAGAGGAGGCAGGCUUCGGUGGCGCGAUAGCGCCAACGUCCUCAACCUCCAAUGCAUCCCAACACAUGAUGAUGCCUGAAGAGCCUUGGUUUUUUG,-3.82
9,GACCAAUCUGCCCUCAGAGCUGGAGAACAUCUUCGGAUGCAGUGGAGGCAGGCUUCGGUGGCGCGAUAGCGCCAACGUCCUCAACCUCCAAUGCAUCCCACCACAUGAUGAUGCCUGAAGAGCCUUGGUUUUUUG,-3.99
10,GACCAAUCUGCCCUCAGAGCUGGAGAACAUCUUCGGAUGCAGAGGAGGCAGGCUUUGGUGGCGCGAUAGCGCCAACGUCCUCAACCUCCAAUGCAUCCCACCACUUGAUGACGCCUGAAGAGCCUUGGUUUUUUG,-2.05
11,GACCAAUCUGCCCUCAGAGCUGGAGAACAUCUUCGGAUGCAGAGGAGGCAGGCUUCGCUGGCGCGAUAGCGCCAACGUCCUCAACCUCCAAUGCAUCCCACCACAUGAUGAUGCCUGAAGAGCCUUGGUUUUUUG,-2.94
12,GACCAAUCUGCCCUCAGAGCUGGAGAACAUCUUCGGAUGCAGAGGAGACAGGCUUCGGUGGCGCGAUAGCGCCAACGUCCUCAACCUCCAAUGCAUCCCACCACAUGAUGAUGCCUGAAGAGCCUUGGUUUUUUG,-3.33
13,GACCAAUCUGCCCUCAGAGCUGGAGAACAUCUUCGGAUGCACAGGAGGCAGGCUUCGGUGGCGCGAUAGCGCCAACGUCCUCAACCUCCAAUGCAUCCCACCACAUGAUGAUGCCUGAAGAGCCUUGGUUUUUUG,-3.87
14,GACCAAUCUGCCCUCAGAGCUGGAGAACAUCUUCGGAUGCAGAGGAGGCAGGCUUCGGUGGCGCGAUAGCGCCAACGUCCUCAGCCUCCAAUGCAUCCCACCACAUGAUGAUGCCUGAAGAGCCUUGGUUUUUUG,-4.29
15,GACCAAUCUGCCCUCAGAGCUGGAGAACAUCUUCGGAUGCAGAGGAGGCAGCCUUCGGUGGCGCGAUAGCGCCAACGUUCUCAACCUCCAAUGCAUCCCACCACAUGAUGAUGCCUGAAGAGCCUUGGUUUUUUG,-4.14
16,GACCAAUCUGCCCUCAGAGCUGGAGAACAUCUUCGGAUGCAGAGGAGGCAGGCUUCGGUGGCGCGAUAGCGCCAACGUCCUCAACGUCCAAUGCAUCCCACCACAUGAUUAUGCCUGAAGUGCCUUGGUUUUUUG,-3.31
17,GACCAAUCUGCCCUCAGAGCUGGAGAACAUCUUCGGAUGCUGAGGAGGCAGGCUUCGGUGGCGCGAUAGCGCCAACGUCCUCAACCUCCAAUUCAUCCCACCACAUGAUGAUGCCUGAAGAGCCUUGGUUUUUUG,-5.01
18,GACCAAUCUGCCCUCAGAGCUAGAGAACAUCUUCGGAUGCAGAGGAGGCAGGCUUCGGUGGCGCGAUAGCUCCAACGUCCUCAACCUCCAAUGCAUCCCACCACAUGAUGAUGCCUGAAGAGCCUUGGUUUUUUG,-5.61
19,GACCAAUCUGCCCUCAGAGCUGGAGAACAUCUUCGGAUGCAGAGGAGGCAGGCUUAGGUGGCGCGAUAGCGCUAACGUCCUCAACCUCCAAUGCAUCCCACCACAUGAUGAUGCCUGAAGAGCCUUGGUUUUUUG,-4.49
20,GACCAAUCUGCCCUCAGAGCUAGAGAACAUCUUCGGAUGCAGAGGAGGCAGGCUUCGGUGGCGCGAUAGCGCCAACGUCCCCAACCUCCAAUGCAUCCCACCACAUGAUGAUGCCUGAAGAGCCUUGGUUUUUUG,-5.67
21,GACCAAUCUGCCCUCAGAGCUGGAGAACAUCUUCGGAUGCAGAGGAGGCAGGCUUCGGUGGCGCGAUAGCGCCAACGUCAUCAACCUCCAAUGCAUCCCAUCACAUGAUGAUGCCUGAAGAGCAUUGGUUUUUUG,-3.81
